T1: human glycophorin A on human red blood cells (human, UniProt P02724 20-150)
T1 construct: whole, on cells; also called human GPA; huGPA
T1 sequence (looked up): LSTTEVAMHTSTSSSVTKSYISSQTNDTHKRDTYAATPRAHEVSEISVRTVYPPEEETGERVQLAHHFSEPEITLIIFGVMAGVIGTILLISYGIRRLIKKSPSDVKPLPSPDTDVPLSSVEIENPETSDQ

T2: glycophorin A peptide GP5 (human, biotin at the N-terminus)
T2 construct: Residues 42 to 61 of the human glycophorin A extracellular domain
T2 peptide: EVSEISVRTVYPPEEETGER


Legend:
[1] = molecular target: T3, Cynomolgus monkey glycophorin A on Cynomolgus monkey red blood cells (Cynomolgus monkey); assay: partition to Cyno RBC, human HemA plasma, 1 min;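 note: FVIII fusion spiked at 1 IU/mL into RBC suspension at whole-blood density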
T3 construct: whole, on cells; also called Cyno GPA; Cyno RBC
Procedure: (§1) To evaluate partition to cynomolgus monkey or human red blood cells, whole blood was draw from Cynomolgus monkey or normal human volunteers in to anticoagulant with 4% sodium citrate (Sigma, St Louis, Mo.). The red blood cells were purified by layering the whole blood on to ficoll followed by low speed centrifugation. The supernatant containing plasma, platelets and white blood cells was discarded and the red blood cell pellet was resuspended in 10 pellet volumes of PBS (50 mM Phosphate buffer, pH7.4, 150 mM NaCl). The red blood cells were then pelleted by slow speed centrifugation and the red blood cells re-suspended in 10 volumes of PBS. This washing step was repeated 4 more times and the red blood cells finally resuspended in a volume of plasma from Hemophilia patients with less than 1% of normal levels of FVIII (GeorgeKing Bio-Medical, Overland Park, Kans.) to generate a total volume equal to the initial blood volume such that the RBC density was equal to that of normal whole blood. BDD and RBC targeted FVIII molecules were then spiked into RBC suspension in HemA plasma at 1 IU/mL, and incubated at room temperature for 2-3 hours with gentle rotation. […] An additional control was performed in which BDD or RBC targeted FVIII molecules were added at 11U/ml into the same human hemophilia A plasma and incubated for 5 minutes and 180 mins. These samples were used to determine the input FVIII activity in the presence of plasma which was used to calculate the percentage of the molecule that was bound to RBC. All plasma samples were then assayed together for FVIII activity using the Coatest SP assay (DiaPharma, Columbus, Ohio). The assay was performed following the manufacturer's instructions in a 96-well plate format. […] The plate was incubated at 37° C. for 10 minutes with shaking between each reagent addition.

[2] = molecular target: T3, Cynomolgus monkey glycophorin A on …; assay: partition to Cyno RBC, human HemA plasma, 5 min;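 note: FVIII fusion spiked at 1 IU/mL into RBC suspension at whole-blood density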
[3] = molecular target: T3, Cynomolgus monkey glycophorin A on …; assay: partition to Cyno RBC, human HemA plasma, 15 min;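 note: FVIII fusion spiked at 1 IU/mL into RBC suspension at whole-blood density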
[4] = molecular target: T3, Cynomolgus monkey glycophorin A on …; assay: partition to Cyno RBC, human HemA plasma, 30 min;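 note: FVIII fusion spiked at 1 IU/mL into RBC suspension at whole-blood density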
[5] = molecular target: T3, Cynomolgus monkey glycophorin A on …; assay: partition to Cyno RBC, human HemA plasma, 60 min;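 note: FVIII fusion spiked at 1 IU/mL into RBC suspension at whole-blood density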
[6] = molecular target: T3, Cynomolgus monkey glycophorin A on …; assay: partition to Cyno RBC, human HemA plasma, 120 min;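 note: FVIII fusion spiked at 1 IU/mL into RBC suspension at whole-blood density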
Procedure: as §1

[7] = molecular target: T1, human glycophorin A on human red blood …; assay: partition to human RBC, vWF deficient plasma, 1 min
[8] = molecular target: T1, human glycophorin A on human red blood …; assay: partition to human RBC, vWF deficient plasma, 5 min
[9] = molecular target: T1, human glycophorin A on human red blood …; assay: partition to human RBC, vWF deficient plasma, 15 min
[10] = molecular target: T1, human glycophorin A on human red blood …; assay: partition to human RBC, vWF deficient plasma, 30 min
[11] = molecular target: T1, human glycophorin A on human red blood …; assay: partition to human RBC, vWF deficient plasma, 60 min
[12] = molecular target: T1, human glycophorin A on human red blood …; assay: partition to human RBC, vWF deficient plasma, 120 min
[13] = molecular target: T2, glycophorin A peptide GP5; assay: Octet, GP5 peptide on the probe, fusion protein in solution, 1:1 fit

% bound to Cyno RBC [1]	% bound to Cyno RBC [2]	% bound to Cyno RBC [3]	% bound to Cyno RBC [4]	% bound to Cyno RBC [5]	% bound to Cyno RBC [6]	percentage bound to human RBC [7]	percentage bound to human RBC [8]	percentage bound to human RBC [9]	percentage bound to human RBC [10]	percentage bound to human RBC [11]	percentage bound to human RBC [12]	Kd [13]	koff [13]	kon [13]	Binder
40.6%	63%	72.1%	74.2%	80.2%	81.8%	76.2%	85.3%	87%	87%	88.7%	86.3%	–	–	–	TPP-9711 FVIII-scFv fusion protein (other, The entry is the mature protein; also called PPB 7816) ATRRYYLGAVELSWDYMQSDLGELPVDARFPPRVPKSFPFNTSVVYKKTLFVEFTDHLFNIAKPRPPWMGLLGPTIQAEVYDTVVITLKNMASHPVSLHAVGVSYWKASEGAEYDDQTSQREKEDDKVFPGGSHTYVWQVLKENGPMASDPLCLTYSYLSHVDLVKDLNSGLIGALLVCREGSLAKEKTQTLHKFILLFAVFDEGKSWHSETKNSLMQDRDAASARAWPKMHTVNGYVNRSLPGLIGCHRKSVYWHVIGMGTTPEVHSIFLEGHTFLVRNHRQASLEISPITFLTAQTLLMDLGQFLLFCHISSHQHDGMEAYVKVDSCPEEPQLRMKNNEEAEDYDDDLTDSEMDVVRFDDDNSPSFIQIRSVAKKHPKTWVHYIAAEEEDWDYAPLVLAPDDRSYKSQYLNNGPQRIGRKYKKVRFMAYTDETFKTREAIQHESGILGPLLYGEVGDTLLIIFKNQASRPYNIYPHGITDVRPLYSRRLPKGVKHLKDFPILPGEIFKYKWTVTVEDGPTKSDPRCLTRYYSSFVNMERDLASGLIGPLLICYKESVDQRGNQIMSDKRNVILFSVFDENRSWYLTENIQRFLPNPAGVQLEDPEFQASNIMHSINGYVFDSLQLSVCLHEVAYWYILSIGAQTDFLSVFFSGYTFKHKMVYEDTLTLFPFSGETVFMSMENPGLWILGCHNSDFRNRGMTALLKVSSCDKNTGDYYEDSYEDISAYLLSKNNAIEPRSFSQNGGGGSTGGTGGSSGGGTGSGGGGTGGSGGTDIQLTQSPSFLSASVGDRVTITCRASSSVRYIYWFQQKPGKAPKLLIYATSFRQSGVPSRFSGSGSGTEYTLTISSLQPEDFATYYCHQRNSFPYTFGQGTKLEIKGGGGSGGGGSGGGGSGGGGSEVQLVQSGAEVKKPGASVKVSCKASGYTFTTYAIHWVRQAPGQGLEWMGYINPSSGYTRYNPKFKGRVTMTRDKSTSTAYMELRSLRSDDTAVYYCWTGTRDYWGQGTTVTVSSGGGGDENQSPRSFQKKTRHYFIAAVERLWDYGMSSSPHVLRNRAQSGSVPQFKKVVFQEFTDGSFTQPLYRGELNEHLGLLGPYIRAEVEDNIMVTFRNQASRPYSFYSSLISYEEDQRQGAEPRKNFVKPNETKTYFWKVQHHMAPTKDEFDCKAWAYFSDVDLEKDVHSGLIGPLLVCHTNTLNPAHGRQVTVQEFALFFTIFDETKSWYFTENMERNCRAPCNIQMEDPTFKENYRFHAINGYIMDTLPGLVMAQDQRIRWYLLSMGSNENIHSIHFSGHVFTVRKKEEYKMALYNLYPGVFETVEMLPSKAGIWRVECLIGEHLHAGMSTLFLVYSNKCQTPLGMASGHIRDFQITASGQYGQWAPKLARLHYSGSINAWSTKEPFSWIKVDLLAPMIIHGIKTQGARQKFSSLYISQFIIMYSLDGKKWQTYRGNSTGTLMVFFGNVDSSGIKHNIFNPPIIARYIRLHPTHYSIRSTLRMELMGCDLNSCSMPLGMESKAISDAQITASSYFTNMFATWSPSKARLHLQGRSNAWRPQVNNPKEWLQVDFQKTMKVTGVTTQGVKSLLTSMYVKEFLISSSQDGHQWTLFFQNGKVKVFQGNQDSFTPVVNSLDPPLLTRYLRIHPQSWVHQIALRMEVLGCEAQDLY
0%	-21.9%	-7.8%	-8.7%	-19.1%	2.9%	76.5%	92.5%	95.2%	95.7%	95.8%	95.7%	4 nM	0.00329 s⁻¹	823000 M⁻¹ s⁻¹	TPP-8798 FVIII-scFv fusion protein (other, The entry is the mature protein; mostly a 2 chain molecule; also called BDD-N scFv; PPB 6705) DIQLTQSPSFLSASVGDRVTITCRASSSVRYIYWFQQKPGKAPKLLIYATSFRQSGVPSRFSGSGSGTEYTLTISSLQPEDFATYYCHQRNSFPYTFGQGTKLEIKGGGGSGGGGSGGGGSGGGGSEVQLVQSGAEVKKPGASVKVSCKASGYTFTTYAIHWVRQAPGQGLEWMGYINPSSGYTRYNPKFKGRVTMTRDKSTSTAYMELRSLRSDDTAVYYCWTGTRDYWGQGTTVTVSSGGGSGGGGSGLVPRGSGGGSGGGGSGATRRYYLGAVELSWDYMQSDLGELPVDARFPPRVPKSFPFNTSVVYKKTLFVEFTDHLFNIAKPRPPWMGLLGPTIQAEVYDTVVITLKNMASHPVSLHAVGVSYWKASEGAEYDDQTSQREKEDDKVFPGGSHTYVWQVLKENGPMASDPLCLTYSYLSHVDLVKDLNSGLIGALLVCREGSLAKEKTQTLHKFILLFAVFDEGKSWHSETKNSLMQDRDAASARAWPKMHTVNGYVNRSLPGLIGCHRKSVYWHVIGMGTTPEVHSIFLEGHTFLVRNHRQASLEISPITFLTAQTLLMDLGQFLLFCHISSHQHDGMEAYVKVDSCPEEPQLRMKNNEEAEDYDDDLTDSEMDVVRFDDDNSPSFIQIRSVAKKHPKTWVHYIAAEEEDWDYAPLVLAPDDRSYKSQYLNNGPQRIGRKYKKVRFMAYTDETFKTREAIQHESGILGPLLYGEVGDTLLIIFKNQASRPYNIYPHGITDVRPLYSRRLPKGVKHLKDFPILPGEIFKYKWTVTVEDGPTKSDPRCLTRYYSSFVNMERDLASGLIGPLLICYKESVDQRGNQIMSDKRNVILFSVFDENRSWYLTENIQRFLPNPAGVQLEDPEFQASNIMHSINGYVFDSLQLSVCLHEVAYWYILSIGAQTDFLSVFFSGYTFKHKMVYEDTLTLFPFSGETVFMSMENPGLWILGCHNSDFRNRGMTALLKVSSCDKNTGDYYEDSYEDISAYLLSKNNAIEPRSFSQNPPVLKRHQREITRTTLQSDQEEIDYDDTISVEMKKEDFDIYDEDENQSPRSFQKKTRHYFIAAVERLWDYGMSSSPHVLRNRAQSGSVPQFKKVVFQEFTDGSFTQPLYRGELNEHLGLLGPYIRAEVEDNIMVTFRNQASRPYSFYSSLISYEEDQRQGAEPRKNFVKPNETKTYFWKVQHHMAPTKDEFDCKAWAYFSDVDLEKDVHSGLIGPLLVCHTNTLNPAHGRQVTVQEFALFFTIFDETKSWYFTENMERNCRAPCNIQMEDPTFKENYRFHAINGYIMDTLPGLVMAQDQRIRWYLLSMGSNENIHSIHFSGHVFTVRKKEEYKMALYNLYPGVFETVEMLPSKAGIWRVECLIGEHLHAGMSTLFLVYSNKCQTPLGMASGHIRDFQITASGQYGQWAPKLARLHYSGSINAWSTKEPFSWIKVDLLAPMIIHGIKTQGARQKFSSLYISQFIIMYSLDGKKWQTYRGNSTGTLMVFFGNVDSSGIKHNIFNPPIIARYIRLHPTHYSIRSTLRMELMGCDLNSCSMPLGMESKAISDAQITASSYFTNMFATWSPSKARLHLQGRSNAWRPQVNNPKEWLQVDFQKTMKVTGVTTQGVKSLLTSMYVKEFLISSSQDGHQWTLFFQNGKVKVFQGNQDSFTPVVNSLDPPLLTRYLRIHPQSWVHQIALRMEVLGCEAQDLY
